Target: OmpK36 (UniProt Q48473)
Test: crystal structure; laser-shaped cylindrical crystal, S-SAD at a wavelength of 4.13 Å, resolution limited to 2.7 Å

## OmpK36 (from UniProt Q48473 22-363) (natural protein)
  stoichiometry N: 3
